Test results from the Human Domainome abundance scans (Beltran et al. 2025).
± gives the uncertainty stated by the source.

B1: POU domain, class 4, transcription factor 1, residues 266 to 347; numbered along this chain, Q01851 (parent)
chain: RELEAFAERFKQRRIKLGVTQADVGSALANLKIPGVGSLSQSTICRFESLTLSHNNMIALKPILQAWLEEAEGAQREKMNKP

Variants of: B1
Assay: abundance fitness (aPCA) (normalised: wild type 0, dead -1); higher = more abundant; growth selection in yeast, the domain comes from the species named
Conditions: Homo sapiens

Row | Variant | abundance fitness
1 | F6L | -0.362 ± 0.027
2 | F6I | -0.318 ± 0.051
3 | A71K | 0.072 ± 0.073
4 | A71R | -0.051 ± 0.04
5 | A71N | 0.044 ± 0.1
6 | A71D | -0.572 ± 0.11
7 | A71P | -0.588 ± 0.15
8 | P82T | -0.001 ± 0.082
9 | P82K | -0.047 ± 0.16
10 | P82Y | 0.095 ± 0.34
11 | P82M | 0.008 ± 0.21
12 | S38G | -0.203 ± 0.13
13 | S38H | 0.047 ± 0.38
14 | S38C | -0.222 ± 0.16
15 | G35T | 0.07 ± 0.19
16 | G35D | -0.142 ± 0.24
17 | G35L | -0.303 ± 0.19
18 | I33R | -0.217 ± 0.026
19 | I33K | -0.203 ± 0.042
20 | I33D | -0.262 ± 0.054
21 | I33M | -0.056 ± 0.036
22 | I33Q | -0.295 ± 0.04
23 | I33W | -0.114 ± 0.03
24 | P62V | -0.485 ± 0.057

Row | Variant | abundance fitness
25 | P62A | -0.366 ± 0.053
26 | P62Q | -0.393 ± 0.092
27 | L68Y | -0.304 ± 0.17
28 | L68C | -0.29 ± 0.08
29 | L68E | -0.672 ± 0.17
30 | L68I | 0.037 ± 0.21
31 | E72S | -0.229 ± 0.06
32 | E72T | -0.244 ± 0.085
33 | E72C | -0.416 ± 0.092
34 | D23C | -0.185 ± 0.098
35 | D23Q | 0.016 ± 0.063
36 | D23E | 0.027 ± 0.048
37 | D23P | -0.913 ± 0.44
38 | D23Y | -0.115 ± 0.094
39 | D23F | -0.208 ± 0.12
40 | D23G | -0.067 ± 0.045
41 | Q12W | -0.339 ± 0.037
42 | Q12P | -0.896 ± 0.079
43 | Q12K | -0.029 ± 0.039
44 | Q12I | -0.144 ± 0.056
45 | Q12R | -0.14 ± 0.028
46 | Q12T | -0.021 ± 0.031
47 | N55P | 0.104 ± 0.074
48 | N55D | -0.094 ± 0.1

Row | Variant | abundance fitness
49 | N55G | 0.044 ± 0.041
50 | N55I | -0.093 ± 0.14
51 | N55V | -0.051 ± 0.043
52 | L52V | -0.588 ± 0.07
53 | L52E | -0.132 ± 0.052
54 | L52Y | -0.701 ± 0.26
55 | E70V | -0.176 ± 0.026
56 | E70W | -0.311 ± 0.032
57 | E70G | -0.061 ± 0.023
58 | E70H | -0.077 ± 0.046
59 | Q65T | -0.06 ± 0.029
60 | F47Y | -0.272 ± 0.12
61 | F47E | -0.819 ± 0.15
62 | S40R | -0.155 ± 0.041
63 | S40N | -0.05 ± 0.1
64 | S40L | -0.238 ± 0.052
65 | S40K | -0.079 ± 0.06
66 | S40V | -0.331 ± 0.055
67 | I58H | -0.169 ± 0.17
68 | I58D | -0.167 ± 0.091
69 | I58Y | -0.118 ± 0.23
70 | I58S | -0.013 ± 0.064
71 | A74G | -0.044 ± 0.023
72 | A74S | 0.005 ± 0.029

Row | Variant | abundance fitness
73 | A74T | -0.013 ± 0.033
74 | A66P | -0.619 ± 0.058
75 | A66R | -0.022 ± 0.023
76 | A66Y | -0.104 ± 0.048
77 | A66C | -0.049 ± 0.039
78 | A66D | 0.013 ± 0.037
79 | A66M | -0.041 ± 0.039
80 | A66K | 0.044 ± 0.035
81 | S42A | 0.012 ± 0.05
82 | S42E | 0.004 ± 0.045
83 | S42P | -0.198 ± 0.083
84 | T51S | 0.018 ± 0.031
85 | T51N | -0.042 ± 0.04
86 | T51P | -0.877 ± 0.085
87 | T51C | -0.106 ± 0.048
88 | Q75N | -0.061 ± 0.11
89 | Q75A | 0 ± 0.04
90 | Q75R | -0.028 ± 0.032
91 | Q75Y | -0.085 ± 0.074
92 | A5L | 0.037 ± 0.044
93 | A5T | -0.065 ± 0.059
94 | A5V | -0.06 ± 0.039
95 | A5C | -0.162 ± 0.099
96 | A5M | 0.016 ± 0.074

Row | Variant | abundance fitness
97 | W67K | -0.606 ± 0.17
98 | W67N | -0.65 ± 0.31
99 | W67C | -0.939 ± 0.32
100 | W67Q | -0.712 ± 0.13
101 | S53I | -0.173 ± 0.31
102 | S53D | -0.136 ± 0.075
103 | S53W | -0.533 ± 0.094
104 | S53T | -0.174 ± 0.064
105 | S53K | -0.269 ± 0.073
106 | A7Y | -0.708 ± 0.088
107 | A7P | -0.525 ± 0.041
108 | A7C | -0.018 ± 0.037
109 | A7H | -0.668 ± 0.078
110 | A7G | -0.594 ± 0.028
111 | A7V | 0.007 ± 0.025
112 | E8D | -0.13 ± 0.16
113 | E8F | -0.223 ± 0.12
114 | E8L | 0.018 ± 0.066
115 | L3S | -0.374 ± 0.052
116 | L3V | -0.053 ± 0.038
117 | L3M | -0.029 ± 0.048
118 | L3A | -0.162 ± 0.042
119 | E4F | -0.054 ± 0.08
120 | L17W | -0.336 ± 0.044

Row | Variant | abundance fitness
121 | L17I | -0.126 ± 0.045
122 | L17A | -0.346 ± 0.038
123 | L17S | -0.608 ± 0.035
124 | L17C | -0.31 ± 0.041
125 | L17R | -0.664 ± 0.046
126 | L17Q | -0.668 ± 0.052
127 | L17K | -0.62 ± 0.052
128 | E77Y | -0.009 ± 0.068
129 | E77T | -0.064 ± 0.04
130 | E77V | -0.005 ± 0.029
131 | A59R | -0.051 ± 0.037
132 | A59M | 0.009 ± 0.067
133 | A59T | -0.011 ± 0.061
134 | A59Q | 0.056 ± 0.071
135 | A59V | 0.011 ± 0.04
136 | K61V | -0.105 ± 0.046
137 | K61D | -0.635 ± 0.15
138 | K61T | -0.132 ± 0.053
139 | K61P | -1.19 ± 0.36
140 | K61R | -0.051 ± 0.04
141 | K16L | -0.071 ± 0.025
142 | K16P | -0.888 ± 0.053
143 | K16E | 0.063 ± 0.048
144 | L39V | 0.001 ± 0.037

Row | Variant | abundance fitness
145 | L39S | -0.33 ± 0.064
146 | L39Q | -0.368 ± 0.085
147 | L39F | -0.211 ± 0.16
148 | H54D | -0.039 ± 0.061
149 | H54F | -0.02 ± 0.1
150 | H54R | 0.053 ± 0.029
151 | H54Q | -0.02 ± 0.055
152 | H54P | 0.041 ± 0.045
153 | H54A | 0.01 ± 0.038
154 | V19D | -0.308 ± 0.14
155 | L28E | -0.782 ± 0.048
156 | L28A | -0.422 ± 0.032
157 | L28Y | -0.439 ± 0.066
158 | I63E | -0.295 ± 0.08
159 | I63F | 0.027 ± 0.15
160 | I63V | 0.002 ± 0.046
161 | I63M | -0.168 ± 0.078
162 | Q41P | 0.104 ± 0.091
163 | Q41N | -0.137 ± 0.13
164 | Q41Y | -0.194 ± 0.12
165 | C45W | -0.076 ± 0.048
166 | C45H | 0.089 ± 0.12
167 | C45R | 0.056 ± 0.04
